Test results from US20070014736A1, “Methods of delivering corticotroph-derived glycoprotein hormone” (priority 2005, published 2007).

How the values were obtained:
[1] = system: adrenal glands; test: Intraperitoneal recombinant CGH for two weeks, adrenal weight; type: in vivo, mice; conditions: 0.25 mg/kg CGH i.p. daily, day 15, female C57BL/6
Description: Summary: Mice were exposed to CGH through infection with adenovirus particles expressing GPHA2 and GPHB5, leading to overexpression and secretion of CGH from the liver of these animals. […] The hypertrophy was apparent in the inner cortical layers, the zona fasciculata and the zona reticularis. Similarly, mice were exposed to CGH through intraperitoneal injection of recombinant CGH protein alone, recombinant CGH protein along with the glucocorticoid Dexamethasone (Dex), Dex alone, or PBS alone daily for two weeks.
Sixteen C57BL/6 female mice at 8 weeks of age were separated into four groups. The first group received daily injections of 0.25 mg/kg of recombinant CGH protein intraperitoneally. The second group received daily injections of PBS using the same procedure. The third group received daily injections of 0.25 mg/kg of CGH plus 0.05 mg/kg Dex and the final group received 0.5 mg/kg Dex, alone. Animals were sacrificed on day 15 and the adrenal glands were isolated and weighed. Example 5 describes the expression and purification of recombinant CGH protein used in this experiment.

[2] = system: obese male ob/ob mice; test: Chronic 28-day treatment of ob/ob mice; type: in vivo
Description: Summary: CGH was administered daily for 28 days to obese male ob/ob mice. Mice were also treated with vehicle saline and thyroxine. Data was obtained for food intake, blood glucose, serum insulin, serum lipids, and serum thyroid hormone levels. At sacrifice, animals were examined for changes in liver pathology, and gross histology. […] Evaluation of liver histology sections was performed to examine the effect of CGH-mediated lipolysis on liver steatosis.
11-week old male ob/ob mice were individually caged and given a standard lab chow (4% fat) with free access to food and water. Animals were assigned to a treatment group (n=7−8, average weight 54.3±0.3 g/group), kept on a 12 hour dark cycle (6 PM to 6 AM), and injected each day between 7 and 9 AM. Chow consumed by each animal was weighed twice weekly. All animals received treatments IP in an injection volume of 0.1 ml. CGH was administered at 250 μg/kg, dissolved in sterile saline. Thyroxine (T4) was administered at 1.5 μg/mouse for 4 days, reduced to 1 μg/mouse for 10 days, and returned to 1.5 μg/mouse for the next 14 days. The vehicle controls received sterile saline. TSH was obtained from Genzyme Pharmaceuticals (Thyrogen®, Catalog number 36778; Genzyme Corporation, Cambridge, Mass.), and T4 obtained from Calbiochem, Inc. (EMD Biosciences, catalog number 61205, San Diego, Calif.) All blood draws were performed by retro-orbital puncture under isoflurane anesthesia.
After 25 days of treatment as described above, blood was sampled from all treated animals, serum separated, and analyzed for total T4 by a commercially available kit (Biocheck, Burlingame, Calif.). After 25 days of treatment, the vehicle T4 levels were 5.14±0.08 μg/dl. The CGH-treated group had T4 levels of 7.25±1.2 μg/dl, and the thyroxine-treated group had T4 levels of 9.04±0.47 μg/dl.
Subject animals were fasted for 4 hours at the beginning of the light cycle, and serum was obtained at treatment day 25 under isoflurane anesthesia. Serum Glucose levels were determined with the Cholestech LDX blood analyzer (Cholestech Corporation, Hayward Calif.), and serum insulin levels by ELISA. Serum glucose levels for vehicle and thyroxine treated groups were 306±22 and 295±23 mg/dl, respectively. […] Serum insulin levels for the vehicle and thyroxine treated groups were 33.5±1.8 and 25.9±1.7 ng/ml, respectively.
Subject animals were fasted for 4 hours at the beginning of the light cycle, and serum was obtained at treatment day 25 under isoflurane anesthesia. Triglyceride and total cholesterol levels were determined with the Cholestech LDX blood analyzer. Serum triglyceride levels for the vehicle controls were 143.7±23 mg/dl. […] Total cholesterol levels in the vehicle-treated and thyroxine-treated groups were 198±13 and 194±15 mg/dl, respectively.
Liver sections were dissected from all treatment groups described above and mounted in paraffin following fixation with NBS-formalin. Sections were mounted and stained with hematotoxylin and eosin (H&E) for visualization of hepatic structural changes. The extent of liver steatosis was evaluated on a four-point scale, from 0 to 3, with zero displaying no signs of liver steatosis, and a […], represented pronounced macrovesicular and microvesicular steatosis. […] Average scores given to the groups were vehicle (4), thyroxine (3), and CGH (1.5). […] The CGH treated sections appear to have regained hallmarks of normal hepatocyte architecture in only 28 days of treatment, with areas containing hepatocytes without lipid-laden inclusions in the cytoplasm of the cell.

[3] = system: LPS-induced mild endotoxemia mouse model; test: LPS-induced mild endotoxemia mouse model, serum cytokines; type: in vivo, mice
Description: An in vivo experiment was designed to examine the effect of CGH in a mouse model of LPS-induced mild endotoxemia. This model mimics acute endotoxemia/sepsis by challenging mice with a low, non-lethal dose of bacterial endotoxin (lipopolysaccharide, LPS). Serum is collected at various timepoints (1-8 hours) after intraperitoneal LPS injection and analyzed for altered expression of a wide variety of pro- and anti-inflammatory cytokines and acute phase proteins that mediate the inflammatory response. The model provides a means to assess the potential anti-inflammatory effects of therapeutic candidates during a robust inflammatory response. To initially assess the model, we measured proinflammatory cytokines in a pilot experiment to collect reference data for the model.
C57B1/6 mice (Charles River Laboratories; 5 mice/group) were treated i.p. with PBS, 0.2 mg/kg CGH in PBS, or 2 mg/kg CGH in PBS 1 hour prior to LPS challenge. The mice were then challenged with 25 ug of LPS i.p. and bled at 1 hour and 4 hours after LPS injection. Serum was analyzed for TNF[…] (1 hour) and IL-6 (4 hours) levels by ELISA.
To determine if CGH would potentiate the effect of a sub-maximal dose of glucocorticoid, groups of 10 C57B1/6 mice each were treated i.p. with PBS, 0.15 or 1.5 mg/kg Dex, 2 mg/kg CGH, or a combination of CGH and low or high doses of Dex, 1 hour prior to injection of 25 ug LPS i.p. As shown in TABLE 3 (Expt #2), either 2 mg/kg CGH or 1.5 mg/kg Dex treatment alone (1 hour prior to LPS) caused a significant drop in serum TNFα levels at 1 hour, as observed in previous experiments. The effects of CGH administered in conjunction with Dex on inhibition of TNFα production were greater than either dose of Dex alone.

[4] = Expt 1, 0.2 mg/kg CGH i.p. 1 hr prior to LPS
[5] = Expt 1, 2 mg/kg CGH i.p. 1 hr prior to LPS

B1: CGH: heterodimeric protein hormone comprised of alpha subunit GPHA2 and beta subunit GPHB5, recombinantly produced in CHO cells (protein)
chain 1: QEAVIPGCHLHPFNVTVRSDRQGTCQGSHVAQACVGHCESSAFPSRYSVLVASGYRHNITSVSQCCTISGLKKVKVQLQCVGSRREELEIFTARACQCDMCRLSRY
chain 2: ASSGNLRTFVGCAVREFTFLAKKPGCRGLRITTDACWGRCETWEKPILEPPYIEAHHRVCTYNETKQVTVKLPNCAPGVDPFYTYPVAIRCDCGACSTATTECETI
Average adrenal weight/100 g body weight [1]: 22.26 +/− 0.99 | liver steatosis average score ([2]; H&E liver sections, 28 days, n=4): 1.5 | serum total T4 levels ([2]; after 25 days of treatment): 7.25 ± 1.2 µg/dL | Serum glucose levels ([2]; day 25, fasted 4 hours): 251 ± 10 mg/dL | Serum insulin levels ([2]; day 25, fasted 4 hours): 14.2 ± 3.6 ng/mL | Serum triglyceride levels ([2]; day 25, fasted 4 hours): 100 ± 14.7 mg/dL | Total cholesterol levels ([2]; day 25, fasted 4 hours): 104 ± 8.8 mg/dL | Food intake ([2]; ob/ob mice, CGH 250 μg/kg IP daily, T4 1-1.5 μg/mouse): 6.3±0.09 grams/day of chow | reduction of TNFα induction ([3]; 2 mg/kg CGH, 1 hour time point, Expt 1): about 60% | increase of serum IL-6 levels ([3]; 2 mg/kg CGH, 4 hour time point, Expt 1): about 70% | IL-6, 4 hours [3, 4]: 49.7 ± 3.1 ng/mL | TNFα, 1 hour [3, 4]: 3916 ± 1057 pg/mL | IL-6, 4 hours [3, 5]: 71.1 ± 12.9 ng/mL | TNFα, 1 hour [3, 5]: 2290 ± 530 pg/mL | IL-6, 4 hours ([3]; Expt 2, 2 mg/kg CGH): 57.1 ± 16.2 ng/mL | TNFα, 1 hour ([3]; Expt 2, 2 mg/kg CGH): 2274 ± 524 pg/mL
